Experimental data reported in paper PMC4531439, “New insights into the molecular mechanism of the Rab GTPase Sec4p activation” (BMC Structural Biology, 2015).

Biological target: the molecule itself
Assay: cell-based or functional assay

B1: Sec2p (51–142) (domain or fragment, UniProt P17065 51-142, looked up)
chain: NYNQLKEDYNTLKRELSDRDDEVKRLREDIAKENELRTKAEEEADKLNKEVEDLTASLFDEANNMVADARKEKYAIEILNKRLTEQLREKDT
mantGDP dissociation rate from Sec4p(19-187) stimulated by 500 nM Sec2p(51-142), compared with Sec2p(1-160): 20 fold slower than Sec2p 1-160
